Measured values: patent US20240425607A1, “IL-18BP ANTAGONIST ANTIBODIES AND THEIR USE IN MONOTHERAPY AND COMBINATION THERAPY IN THE TREATMENT OF CANCER” (Compugen Ltd., priority 2023, published 2024)

How the values were obtained:
[1] = tested on: human TDCs with endogenous IL18 and IL18BP; experiment: Ex vivo culture of human tumor dissociated cells (TDCs); type: cell-based
Protocol: Resected tumor specimens were cut into 1 mm pieces using scalpel and transferred into enzymatic digestion mix (Tumor Dissociation kit, Miltenyi, 130-095-929). Dissociation was done according to the manufacturer's instructions using gentle MACS Dissociator (Miltenyi Biotec). Dissociation time lasted 1 h under mechanical rotation and heating. Samples were centrifuged for 3 min at 300 g, pellet was resuspended in RPMI, passed through a MACS SmartStrainer (70 μm), and centrifuged for 7 min at 300 g. Cells were resuspended with RBC for 3 min, washed with RPMI 1640, transferred through 40 μm filter and centrifuged for 7 min at 300 g. Finally, cells were resuspended in PBS, stained with Trypan blue and counted. Samples were then stained for flow cytometric analyses or resuspended in fetal bovine serum containing 10% of dimethyl sulfoxide for storage in liquid nitrogen.
Human TDC samples were seeded at 0.1×10^6 of CD45+ cells per well in 96-well plate, pre-coated with anti-CD3 and anti-CD28 antibodies (10 μg/ml both). Complete medium, [RPMI 1640 (BI, Cat. #01-110-1A) supplemented with 10% human AB serum (Sigma, Cat. #H3667), 1% Penicillin/Streptomycin (BI, Cat. #03-031-1B), 1% 1-glutamine (Life Technologies, Cat. #35050-038) and 1% of sodium pyruvate (BI, Cat. #03-042-1B)] was used. […]

[2] = target: T1, recombinant human IL18-BP (Homo sapiens, UniProt O95998); experiment: MEL624:TIL assay; type: cell-based; conditions: rhIL-18 30 ng/ml + rhIL-18BP 1 μg/ml, vs isotype control
T1 construct: purchased R&D systems 119-BP
T1 sequence (O95998 31-194): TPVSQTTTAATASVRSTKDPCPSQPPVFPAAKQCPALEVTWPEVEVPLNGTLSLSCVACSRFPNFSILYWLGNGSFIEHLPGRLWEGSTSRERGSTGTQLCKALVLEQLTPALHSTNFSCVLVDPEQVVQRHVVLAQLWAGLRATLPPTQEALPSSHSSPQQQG
Protocol: Human MEL624 cells were thawed and grown in DMEM with 10% FBS, 1% Glutamax, 1% Penicillin-Streptomycin Solution and 1% HEPES buffer. The cells were then seeded at 75 k cells/well in a 96 well plate in the assay medium (IMDM with 10% human serum, 1% Glutamax, 1% MEM eagle, 1% Sodium Pyruvate and 1% Penicillin-Streptomycin Solution) and incubated 1 hour in 37° C., 5% CO2 incubator before co-culture with human tumor infiltrating lymphocytes that were previously expanded using known melanoma antigens (TILs). Human TILs were thawed in full TIL media and 75 k cells/well were co-cultured with the MEL624 cells to create an effector: target ratio of 1:1. The co-cultured cells were then treated with rhIL-18 (30 ng/ml) and rhIL-18BP (1 μg/ml) for 30 min in 37° C., 5% CO2 incubator to allow IL-18:IL-18BP complex formation. After 30 minutes, anti-human IL-18BP mAb (ADI-71722, dose titration, 30 μg/ml-0.01 μg/ml, dilution factor of 1:3) or relevant isotype control (hIgG1 30 μg/ml) were added to the co-culture to examine its capability to restore IL-18 activity. Cells and all added solutions were prepared in full assay medium to a final volume of 200 μl/well. Plates were incubated for 24 hours in 37° C., 5% CO2 incubator, after which the supernatant was collected for cytokine secretion evaluation. All tests were done in triplicates and each repeated with TIL four donors. […]

[3] = Fab Tm by dynamic scanning fluorimetry (DSF); type: physicochemical; conditions: optimized antibodies
Protocol: 10 μL of 20× Sypro Orange is added to 20 μL of 0.2-1 mg/mL mAb or Fab solution. A RT-PCR instrument (BioRad CFX96 RT PCR) is used to ramp the sample plate temperature from 40 to 95° C. at 0.5° C. increment, with 2 min equilibrate at each temperature. The negative of first derivative for the raw data is used to extract Tm.

[4] = target: T2, endogenous IL-18BP (Homo sapiens, UniProt O95998); experiment: TIL:MEL624 co-culture with endogenous IL-18BP levels; type: cell-based; conditions: 5 μg/ml; IL-18 3.7 ng/ml, no added IL-18BP; 18 hours; vs isotype
T2 construct: endogenous in cells; host or cells: MEL624 cells and human TILs
T2 sequence (O95998 31-194): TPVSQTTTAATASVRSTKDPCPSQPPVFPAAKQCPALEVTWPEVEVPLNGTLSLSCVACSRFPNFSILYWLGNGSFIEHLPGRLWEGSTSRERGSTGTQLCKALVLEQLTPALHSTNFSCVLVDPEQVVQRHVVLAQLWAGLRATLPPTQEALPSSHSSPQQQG
Protocol: A. Schematic representation of assay setup. MEL624 cells were co-cultured with human TILs that were previously enriched for MART1 or gp100 peptide-specific clones. […] The co-culture was set for 18 hours following which IFNg levels were measured in supernatants. […] Representative examples from two TIL donors are shown.

[5] = tested on: MEL624 cells co-cultured with human TILs; experiment: Killing of MEL624 melanoma cells by human TILs (IncuCyte); type: cell-based; conditions: 10 μg/ml; rhIL-18 50 ng/ml + rhIL-18BP 1 μg/ml; 72 hours
Protocol: The co-culture was monitored for 72 hours using an IncuCyte live cell imaging instrument. […] In the presence of the isotype control antibody (black), IL-18BP abrogated the effects of IL-18, while the anti-IL-18BP antibody (turquoise) was able to completely restore these effects.

[6] = SEC-HPLC % monomer; type: physicochemical; conditions: optimized antibodies
Protocol: A TSKgel SuperSW mAb HTP column (22855) was used for fast SEC analysis of mammalian produced mAbs at 0.4 mL/min with a cycle time of 6 min/run. 200 mM Sodium Phosphate and 250 mM Sodium Chloride was used as the mobile phase.

B1: ADI-71739: anti-IL18-BP antibody, sequences in FIG. 2K; 66716 lineage (antibody, V domains shown)
VH: QLQLQESGPGLVKPSETLSLTCTVSGGSISSPDYPWGWIRQPPGKGLEWIGSIYYQGATYYNPSLKSRVTISVDTSKNQFSLKLSSVTAADTAVYYCARGPYRQLFDYWGQGTLVTVSS
VL: DIQMTQSPSSVSASVGDRVTITCRASQGISSWLAWYQQKPGKAPKLLIYAASSLQSGVPSRFSGSGSGTDFTLTISSLQPEDFATYYCQQGSVFPYTFGGGTKVEIK
- Cytokine and Granzyme B secretion by TDCs, vs media ([1]; 10 μg/ml, anti-CD3/anti-CD28 stimulation, human ovarian TDC sample): enhanced TNFa, IFNg, IL2 and Granzyme B secretion
- Cytokine and Granzyme B secretion by TDCs, combination with pembrolizumab vs Pembro alone ([1]; each 10 μg/ml): further increased TNFa, IFNg, and Granzyme B secretion
- IFNγ secretion from TILs [2]: increase IFNγ secretion from TILs
- Fab Tm (DSF, ° C.) [3]: 73.0 °C
- IFNg release by tumor infiltrating lymphocytes [4]: increased IFNg release
- Killing of melanoma cells by tumor infiltrating lymphocytes [5]: increased killing of melanoma cells
- SEC-HPLC, % monomer [6]: 94.9%
